{"source": "patent US10502741B2", "about": "“Means and methods for detecting activated MALT1” (Helmholtz Zentrum München Deutsches Forschungszentrum für …, priority 2014, dated 2019)", "key": {"cathepsin B": {"biological_target": "cathepsin B (Homo sapiens, UniProt P07858)", "assay": "Labeling with diagnostic inhibitor in cell extracts (gel-based, fluorescence scan): about 30 kDa cathepsin B band", "design": "endogenous in cells; host or cells: Jurkat T cells; HBL1 and other DLBCL cell lines", "conditions": "Jurkat T cells, whole cell extract", "method": "(§1) Jurkat T cells were cultured in standard RPMI medium containing 10% FCS, 100 U/ml Penicillin/Streptomycin and 2 mM Glutamin. DNA transfection of 6 μg DNA in 8×10^6 Jurkat T cells was performed by electroporation in a GenePulser Xcell (BioRad) with a 220 Volt pulse. For siRNA experiments, Jurkat T cells were transfected with 100 nM siRNA and Atufect transfection reagent (Silence Therapeutics, Berlin). Jurkat T cells were stimulated either with 200 ng/ml PMA (phorbol 12-myristate 13-acetate) and 300 ng/ml Ionomycin (both Calbiochem) or CD3/CD28 antibody co-ligation (human CD3: 1 μg/ml; human CD28: 4 μg/ml; mouse IgG1: 2 μg/ml; mouse IgG2a: 2 μg/ml; BD Biosciences). DLBCL cell lines (HBL1, TMD8, OCI-Ly3, U2932, RIVA, BJAB, Su-DHL-4 and Su-DHL-6) were cultured in standard RPMI medium containing 20% FCS, 100 U/ml Penicillin/Streptomycin and 2 mM Glutamin. OCI-Ly10 cell line was cultured in IMDM containing 20% human serum, 100 U/ml Penicillin/Streptomycin, 2 U/ml heparine, 50 μM β-mercaptoethanol. Inhibitors 10 μM (z-VRPR-FMK, Mepazine, Thioridazine, CA-074Me) were added to the cells in media for 1 h, prior to stimulation and labeling with diagnostic MALT1 inhibitor.\n(§2) Jurkat T cells (1-2×10^7), primary human PBMCs or primary human T cells (0.25 or 1×10^7) were lysed in 150 μl co-IP buffer without protease inhibitors. DLBCL (3×10^7) were lysed in 250 μl buffer. After centrifugation (14000 rpm, 10 min, 4° C.), 100 μl extract (DLBCL: 200 μl) was stained with probe 5 or probe 6 (3 μM end) for 50 min at 29° C., mixed with 4× loading dye and boiled."}, "active MALT1 [1]": {"biological_target": "T1, active MALT1 (Homo sapiens, UniProt Q9UDY8)", "T1 construct": "endogenous in cells; host or cells: Jurkat T cells, primary human PBMCs and T cells, DLBCL cell lines (HBL1, TMD8, OCI-Ly3, OCI-Ly10, U2932, RIVA, BJAB, Su-DHL-4, Su-DHL-6)", "T1 sequence (Q9UDY8 1-824)": "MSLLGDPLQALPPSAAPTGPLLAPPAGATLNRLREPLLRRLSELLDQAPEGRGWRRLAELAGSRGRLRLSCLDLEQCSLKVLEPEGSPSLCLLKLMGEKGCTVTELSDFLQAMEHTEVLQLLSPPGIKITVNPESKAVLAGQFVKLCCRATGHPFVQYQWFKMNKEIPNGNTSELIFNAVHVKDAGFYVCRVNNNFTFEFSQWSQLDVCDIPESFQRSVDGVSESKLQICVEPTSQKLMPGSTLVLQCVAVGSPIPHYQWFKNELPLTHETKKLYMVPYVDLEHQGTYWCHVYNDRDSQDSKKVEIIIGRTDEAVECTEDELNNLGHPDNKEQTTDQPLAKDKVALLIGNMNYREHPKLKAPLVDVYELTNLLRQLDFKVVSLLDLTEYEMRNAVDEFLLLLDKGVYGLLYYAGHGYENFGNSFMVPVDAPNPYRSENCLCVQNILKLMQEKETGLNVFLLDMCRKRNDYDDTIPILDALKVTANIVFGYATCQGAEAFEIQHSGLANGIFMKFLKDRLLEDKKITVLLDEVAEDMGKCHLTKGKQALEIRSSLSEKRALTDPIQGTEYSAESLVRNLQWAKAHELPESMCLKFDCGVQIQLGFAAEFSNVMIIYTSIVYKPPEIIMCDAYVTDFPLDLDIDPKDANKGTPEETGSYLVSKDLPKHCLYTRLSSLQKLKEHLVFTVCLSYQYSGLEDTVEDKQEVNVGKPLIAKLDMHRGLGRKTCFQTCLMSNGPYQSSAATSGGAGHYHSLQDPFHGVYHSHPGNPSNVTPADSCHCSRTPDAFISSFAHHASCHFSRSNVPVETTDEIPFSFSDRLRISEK", "assay": "Labeling with diagnostic inhibitor in cell extracts (gel-based, fluorescence scan): active MALT1 band", "method": "as §1, §2"}, "active MALT1 [2]": {"biological_target": "T1, active MALT1", "assay": "Labeling with diagnostic inhibitor in cell extracts (gel-based, fluorescence scan): active MALT1 band", "conditions": "2×10^6 primary human T cells, 3 μM probe"}, "FLAG-MALT1 wt": {"biological_target": "T2, FLAG-MALT1 wt (Homo sapiens, UniProt Q9UDY8)", "T2 construct": "expressed in transfected cells; host or cells: Jurkat T cells (pEF vector, electroporation)", "T2 sequence (Q9UDY8 1-813 isoform Q9UDY8-2)": "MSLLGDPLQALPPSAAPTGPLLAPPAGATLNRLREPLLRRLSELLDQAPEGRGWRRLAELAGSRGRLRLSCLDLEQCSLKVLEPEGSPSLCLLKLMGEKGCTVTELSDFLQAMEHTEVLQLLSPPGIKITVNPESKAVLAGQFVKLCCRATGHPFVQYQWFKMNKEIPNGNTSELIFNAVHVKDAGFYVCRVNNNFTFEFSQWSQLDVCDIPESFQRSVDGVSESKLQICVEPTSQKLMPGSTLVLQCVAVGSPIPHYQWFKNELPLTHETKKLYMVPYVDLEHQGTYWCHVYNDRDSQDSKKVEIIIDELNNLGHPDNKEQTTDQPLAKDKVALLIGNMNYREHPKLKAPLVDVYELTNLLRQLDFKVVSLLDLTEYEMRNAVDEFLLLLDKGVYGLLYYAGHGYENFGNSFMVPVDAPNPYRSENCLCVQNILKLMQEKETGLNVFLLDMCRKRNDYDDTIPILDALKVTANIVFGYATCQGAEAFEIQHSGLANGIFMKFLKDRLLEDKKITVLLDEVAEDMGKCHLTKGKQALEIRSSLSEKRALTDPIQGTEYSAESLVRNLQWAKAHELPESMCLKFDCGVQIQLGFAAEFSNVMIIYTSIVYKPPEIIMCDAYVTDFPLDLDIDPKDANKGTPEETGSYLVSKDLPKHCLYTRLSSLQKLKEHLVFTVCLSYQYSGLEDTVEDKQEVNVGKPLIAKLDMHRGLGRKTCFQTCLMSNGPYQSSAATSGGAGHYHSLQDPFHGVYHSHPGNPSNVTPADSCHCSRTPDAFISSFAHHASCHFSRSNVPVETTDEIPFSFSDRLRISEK", "assay": "Labeling with diagnostic MALT1 inhibitor after immunoprecipitation (gel-based, fluorescence scan)", "format": "binding", "conditions": "probe pre-clicked to TAMRA, after FLAG immunoprecipitation in Jurkat T cells", "method": "Jurkat T cells, transfected with active FLAG-[…] wt or active site mutant C464A, were stained after lysis and IP with probe 2, pre-clicked to TAMRA. Analysis was done by fluorescence staining.\nCopper I-catalysed click chemistry reaction was performed in 50 μl 50 mM hepes with 10 μM alkyne-LRSR-AOMK (probe 2) and 10 μM N-TAMRA-3-aminopropylazide or 100 μM N-FITC-3-aminopropylazide. Reducing agent sodium ascorbate (0.5 mM), TBTA (50 μM) and CuSO4 (1 mM) were added to the reaction and incubated for 45 min at RT.\nCells were lysed in 500 μl co-IP buffer without protease inhibitors (25 mM hepes pH 7.5, 150 mM NaCl, 0.2% NP-40, 10% glycerol, 1 mM DTT, 10 mM sodium fluoride, 8 mM (3-glycerophosphate and 300 μM sodium vanadate), centrifuged (14000 rpm, 10 min, 4° C.) and overexpressed FLAG MALT1 was immunoprecipitated by FLAG (M2) antibody for 3 hours at 4° C. PGS was added for 1 h at 4° C., precipitate was washed 2× with co-IP buffer and 1× with 50 mM hepes pH 7.4. Precipitated MALT1 was incubated with 0.3 μM pre-clicked probe 2 (in 20 μl 50 mM hepes pH 7.4) for 50 min at 29° C., mixed with 4× loading dye and boiled for 3 min. After protein separation by SDS PAGE, staining with diagnostic inhibitor was detected by Typhoon Fluorescence Scanner (FITC laser 488 nm/filter 526 SP; TAMRA laser 532 nm/filter 580 BP)."}}, "note": "The star is where a group is joined. BODIPY(FL) = CC1=CC(C)=[N+]2C1=Cc1ccc(CCC(=O)*)n1[B-]2(F)F; AOMK = acyloxymethyl ketone C-terminal warhead; alkyne = not defined here"}
{"substance": "(BODIPY-FL)-LRSR-AOMK ({BODIPY(FL)}-LRSR-{AOMK}) [probe 6]", "values": [{"measurement": "cathepsin B labeling compared with probe 5", "setting": "cathepsin B", "result": "cathepsin B labeling was even reduced"}, {"measurement": "active MALT1 signal in lymphoma whole cell extracts", "setting": "active MALT1 [1]; ABC DLBCL cells (HBL1 for probe 6)", "result": "weakly labeled active MALT1"}, {"measurement": "active MALT1 labeling compared with probe 5", "setting": "active MALT1 [1]; Jurkat T cells, whole cell extract", "result": "slightly more effective in active MALT1 labeling"}, {"measurement": "MALT1-probe complex in ABC DLBCL cells", "setting": "active MALT1 [1]; panel of ABC DLBCL pretreated with CA-074Me, whole cell lysates, no stimulation", "result": "detected even in the absence of any stimulation"}, {"measurement": "MALT1-probe labeling in GCB DLBCL cells", "setting": "active MALT1 [1]; panel of GCB DLBCL pretreated with CA-074Me, whole cell lysates", "result": "all negative"}, {"measurement": "active MALT1 signal in primary human T cells, gel-based", "setting": "active MALT1 [2]", "result": "weak active MALT1 signal"}]}
{"substance": "alkyne-LRSR-AOMK (alkyne-LRSR-{AOMK}; not fully specified; reading uncertain) [probe 2, used pre-clicked to TAMRA]", "values": [{"measurement": "labeling of overexpressed FLAG-MALT1 wt versus catalytic inactive mutant", "setting": "FLAG-MALT1 wt", "result": "FLAG-MALT1 wt but not the catalytic inactive mutant was detected"}]}
